From US6413935
Non-standard residues stand in square brackets, D forms with d. No end group written: not given here. Cha = N[C@@H](CC1CCCCC1)C(=O)O; 14 = not defined here

Legend:
[1] = molecular target: T1, HLA-DR2w2a (DRB5*0101), purified from transfected fibroblasts L416.3 (human); test: competition vs 125I-peptide, purified class II MHC
T1 chain 1: not shown
T1 chain 2: not shown

[2] = molecular target: T2, HLA-DR3 (DRB1*0301), purified from cell line MAT (human); test: competition vs 125I-peptide, purified class II MHC
T2 chain 1: not shown
T2 chain 2: not shown

[3] = molecular target: T3, HLA-DR5 (DRB1*11011), purified from cell line SWEIG (human); test: competition vs 125I-peptide, purified class II MHC
T3 chain 1: not shown
T3 chain 2: not shown

[4] = molecular target: T4, HLA-DR4w4 (DRB1*0401), purified from cell line PREISS (human); test: competition vs 125I-peptide, purified class II MHC
T4 chain 1: not shown
T4 chain 2: not shown

[5] = molecular target: T5, HLA-DR3 (DRB1*0301), purified from MAT cells (human); test: 125I-peptide inhibition, purified class II
T5 chain 1: not shown
T5 chain 2: not shown

[6] = molecular target: T6, HLA-DR4w4 (DRB1*0401), purified from PREISS cells (human); test: 125I-peptide inhibition, purified class II
T6 chain 1: not shown
T6 chain 2: not shown

[7] = molecular target: mouse class II IE^k, purified from CH12 cells (mouse); test: 125I-peptide inhibition, purified class II
[8] = molecular target: T7, HLA-DRw53 (DRB4*0101), purified from L257.6 transfected fibroblasts (human); test: 125I-peptide inhibition, purified class II
T7 chain 1: not shown
T7 chain 2: not shown

[9] = molecular target: T8, HLA-DR2w2a (DRB5*0101), purified from L416.3 transfected fibroblasts (human); test: 125I-peptide inhibition, purified class II
T8 chain 1: not shown
T8 chain 2: not shown

[10] = molecular target: T9, mouse class II IA^b, purified from DB27.4 cells (mouse), P14434; test: 125I-peptide inhibition, purified class II
T9 chain 1: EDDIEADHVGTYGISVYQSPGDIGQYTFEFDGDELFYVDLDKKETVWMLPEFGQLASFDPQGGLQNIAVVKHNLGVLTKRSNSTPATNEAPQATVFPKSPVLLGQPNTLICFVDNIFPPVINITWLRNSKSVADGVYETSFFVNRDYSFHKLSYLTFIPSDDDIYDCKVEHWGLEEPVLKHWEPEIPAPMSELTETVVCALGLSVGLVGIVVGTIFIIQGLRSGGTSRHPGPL
T9 chain 2: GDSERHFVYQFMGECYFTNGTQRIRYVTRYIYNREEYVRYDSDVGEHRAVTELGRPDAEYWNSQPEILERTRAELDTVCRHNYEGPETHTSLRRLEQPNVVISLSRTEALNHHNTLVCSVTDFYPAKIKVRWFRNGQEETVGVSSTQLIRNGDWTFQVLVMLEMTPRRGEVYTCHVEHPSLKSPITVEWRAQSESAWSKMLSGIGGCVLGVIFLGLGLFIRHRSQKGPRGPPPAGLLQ

[11] = molecular target: T10, HLA-DR52a (DRB3*0101), purified from MAT cells or TR81.19 transfected fibroblasts (human); test: 125I-peptide inhibition, purified class II
T10 chain 1: not shown
T10 chain 2: not shown

[12] = molecular target: T11, HLA-DR7 (DRB1*0701), purified from PITOUT cells (human); test: 125I-peptide inhibition, purified class II
T11 chain 1: not shown
T11 chain 2: not shown

[13] = molecular target: T12, HLA-DR2w2b (DRB1*1501), purified from 3107 cells (human); test: 125I-peptide inhibition, purified class II
T12 chain 1: not shown
T12 chain 2: not shown

[14] = molecular target: mouse class II IE^d, purified from A20 cells (mouse); test: 125I-peptide inhibition, purified class II
[15] = molecular target: T13, mouse class II IA^d, purified from A20 cells (mouse), P04228; test: 125I-peptide inhibition, purified class II
T13 chain 1: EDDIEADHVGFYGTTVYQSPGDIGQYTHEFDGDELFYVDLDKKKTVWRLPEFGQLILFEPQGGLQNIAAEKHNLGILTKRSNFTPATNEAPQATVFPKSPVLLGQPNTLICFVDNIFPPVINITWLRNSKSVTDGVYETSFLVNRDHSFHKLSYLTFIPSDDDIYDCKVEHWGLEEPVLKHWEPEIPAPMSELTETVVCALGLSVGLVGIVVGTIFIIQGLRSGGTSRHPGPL
T13 chain 2: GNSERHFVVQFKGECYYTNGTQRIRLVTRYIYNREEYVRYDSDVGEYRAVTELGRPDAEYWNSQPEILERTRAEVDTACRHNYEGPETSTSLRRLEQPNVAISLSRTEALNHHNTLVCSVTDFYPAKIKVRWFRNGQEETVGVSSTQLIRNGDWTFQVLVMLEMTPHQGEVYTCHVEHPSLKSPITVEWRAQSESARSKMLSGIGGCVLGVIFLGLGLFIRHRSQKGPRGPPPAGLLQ

[16] = molecular target: HLA-DR1 (DRB1*0101), purified from LG2 cells (human); test: 125I-peptide inhibition, purified class II
[17] = molecular target: mouse class II IA^s, purified from LS102.9 cells (mouse); test: 125I-peptide inhibition, purified class II
[18] = molecular target: T14, HLA-DR5 (DRB1*11011), purified from SWEIG cells (human); test: 125I-peptide inhibition, purified class II
T14 chain 1: not shown
T14 chain 2: not shown

[19] = molecular target: T13, mouse class II IA^d, purified from A20 …; test: assay standard, average IC50
[20] = molecular target: T15, mouse class II IA^k, purified from CH12 cells (mouse), P01910; test: 125I-peptide inhibition, purified class II
T15 chain 1: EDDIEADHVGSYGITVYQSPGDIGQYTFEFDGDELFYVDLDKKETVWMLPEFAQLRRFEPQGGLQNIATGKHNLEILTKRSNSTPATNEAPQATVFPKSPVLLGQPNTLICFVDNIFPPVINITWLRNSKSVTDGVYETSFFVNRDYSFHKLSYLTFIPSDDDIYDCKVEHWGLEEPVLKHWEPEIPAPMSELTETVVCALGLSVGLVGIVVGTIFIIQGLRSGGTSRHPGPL
T15 chain 2: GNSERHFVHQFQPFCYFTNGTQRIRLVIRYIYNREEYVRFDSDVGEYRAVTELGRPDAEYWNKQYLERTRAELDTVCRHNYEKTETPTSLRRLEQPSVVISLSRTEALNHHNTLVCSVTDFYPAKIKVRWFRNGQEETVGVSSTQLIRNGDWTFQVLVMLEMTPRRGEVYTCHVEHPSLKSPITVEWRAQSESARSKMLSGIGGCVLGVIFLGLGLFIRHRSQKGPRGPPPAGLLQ

[21] = molecular target: mouse class II IE^d, purified from A20 cells (mouse); test: assay standard, average IC50
[22] = molecular target: T15, mouse class II IA^k, purified from CH12 …; test: assay standard, average IC50
[23] = molecular target: T16, HLA-DR7 (DRB1*0701), purified from cell line PITOUT (human); test: competition vs 125I-peptide, purified class II MHC
T16 chain 1: not shown
T16 chain 2: not shown

**Q.** What does the source list for [dA]K[14]VAAHTLKAA[dA]-NH2 (reading uncertain; also: printed as aK(14)VAAHTLKAAa-NH2) [peptide 955.15 (as printed), aK(14)…a-NH2]?
**A.** IC50 [1]: 5.4 nM; IC50 [2]: 2500 nM; IC50 [3]: 29.9 nM; IC50 [4]: 3.2 nM

**Q.** [dA]A[Cha]VAAATLKAA[dA] [906.09] was tested. Which IC50 [5] did it give?
**A.** Its IC50 is 280 nM.

**Q.** And the IC50 [6]?
**A.** Its IC50 is 2.6 nM.

**Q.** What about the IC50 [7] of the same binder?
**A.** The IC50 was 11 nM.

**Q.** What about the IC50 [8] of the same binder?
**A.** The IC50 was 93 nM.

**Q.** And the IC50 [9]?
**A.** The IC50 was 2 nM.

**Q.** What about the IC50 [10] of the same binder?
**A.** Its IC50 is 31 nM.

**Q.** And the IC50 [11]?
**A.** Its IC50 is 588 nM.

**Q.** What about the IC50 [12] of the same binder?
**A.** Its IC50 is 76 nM.

**Q.** And the IC50 [13]?
**A.** Its IC50 is 14 nM.

**Q.** And the IC50 [14]?
**A.** The IC50 was 31 nM.

**Q.** And the IC50 [15]?
**A.** The IC50 was 38 nM.

**Q.** What about the IC50 [16] of the same binder?
**A.** The IC50 was 0.61 nM.

**Q.** How did the IC50 [5] turn out when [dA]A[Cha]IAAATLKAA[dA] [906.11] was run?
**A.** The IC50 was 100 nM.

**Q.** And the IC50 [7]?
**A.** The IC50 was 14 nM.

**Q.** And the IC50 [17]?
**A.** The IC50 was 98 nM.

**Q.** And the IC50 [8]?
**A.** The IC50 was 41 nM.

**Q.** What about the IC50 [9] of the same binder?
**A.** Its IC50 is 1.3 nM.

**Q.** What about the IC50 [12] of the same binder?
**A.** Its IC50 is 31 nM.

**Q.** And the IC50 [18]?
**A.** The IC50 was 2.4 nM.

**Q.** What about the IC50 [14] of the same binder?
**A.** Its IC50 is 13 nM.

**Q.** What about the IC50 [16] of the same binder?
**A.** Its IC50 is 0.38 nM.

**Q.** What does the source list for ISQAVHAAHAEINE (modifications not checked) [Ova 323-336]?
**A.** IC50 [19]: 110 nM; IC50 [20]: 1000 nM; IC50 [7]: 700 nM; IC50 [15]: 110 nM

**Q.** With YLEDARRLKAIYEKKK (modifications not checked) [lambda rep 12-26] as the binder, how does the IC50 [21] read?
**A.** The IC50 was 170 nM.

**Q.** What about the IC50 [20] of the same binder?
**A.** Its IC50 is greater than 10000 nM.

**Q.** And the IC50 [10]?
**A.** Its IC50 is greater than 10000 nM.

**Q.** What about the IC50 [14] of the same binder?
**A.** Its IC50 is 170 nM.

**Q.** And the IC50 [15]?
**A.** The IC50 was 1100 nM.

**Q.** How did the IC50 [22] turn out when YNTDGSTDYGILQINSR (modifications not checked) [HEL 46-61 (assay standard, with N-terminal Y)] was run?
**A.** The IC50 was 20 nM.

**Q.** Which IC50 [23] does the source give for [dA]K[14]VKAWTLKAA[dA]-NH2 (reading uncertain; also: printed as aK(14)VKAWTLKAAa-NH2) [peptide 965.021, aK(14)…a-NH2] here?
**A.** The IC50 was 89.3 nM.

**Q.** What about the IC50 [2] of the same binder?
**A.** Its IC50 is 1100 nM.

**Q.** And the IC50 [3]?
**A.** Its IC50 is 4.1 nM.
